Experimental data taken from US20030008334A1 (published 2003).
Values belong to the molecule of their own block, whether it stands above or below them.

Experiments:
[1] = target: MBP-afadin-PDZ (MBP-fusion protein of the PDZ domain of afadin) (UniProt O35889); assay: affinity chromatography on MBP-afadin-PDZ amylose beads, eluate on SDS-PAGE
[2] = target: the molecule itself; assay: immunofluorescence microscopy of co-cultured nectin-1α-L and nectin-2α-L cells
Procedure: Chemical cross-linking was done according to the method described in references (Blood 92: 4602-4611, 1998; J. Biol. Chem., 275: 613-618, 2000). Immunoprecipitation was performed according to the method described in references (J. Cell Biol., 145: 539-549, 1999; J. Biol. Chem., 275: 613-618, 2000). Immunofluorescence microscopy of cultured cells was done according to the method described in references (J. Cell Biol., 139: 517-528, J. Cell Biol., 145: 539-549, 1999; J. Biol. Chem., 275: 613-618, 2000). Protein concentrations were determined with bovine serum albumin as a control, according to the method described in a reference (Anal. Biochem., 72: 248-254, 1976). SDS-PAGE was done as described (Nature, 227: 680-685, 1970).
When nectin-1α-L cells were co-cultured with nectin-2α-L cells, nectin-1α and nectin-2α were localized in the cell-cell contact sites of the respective L cells (FIG. 5, A1-A3). However, neither nectin-1α or nectin-2α was detected in the contact sites of the two types of the L cells. In contrast, when nectin-3α-L cells were co-cultured with nectin-1α-L cells, nectin-3α and nectin-1α coexisted in the cell-cell contact site of the two types of the L cells (FIG. 5, B1-B3). The same result was obtained in co-culture of nectin-3α-L cells and nectin-2α-L cells (FIG. 5, C1-C3).

stoichiometry of binding (nectin-3α:afadin ratio) [1]: 1
Molecule: GST-nectin-3α-CP (GST-fusion protein of the cytoplasmic region of nectin-3α) (from UniProt Q9JLB9 433-549)

B1: Full-length human nectin-1α expressed on L cells (nectin-1α-L cells) (receptor, UniProt Q15223 31-517, looked up)
chain: QVVQVNDSMYGFIGTDVVLHCSFANPLPSVKITQVTWQKSTNGSKQNVAIYNPSMGVSVLAPYRERVEFLRPSFTDGTIRLSRLELEDEGVYICEFATFPTGNRESQLNLTVMAKPTNWIEGTQAVLRAKKGQDDKVLVATCTSANGKPPSVVSWETRLKGEAEYQEIRNPNGTVTVISRYRLVPSREAHQQSLACIVNYHMDRFKESLTLNVQYEPEVTIEGFDGNWYLQRMDVKLTCKADANPPATEYHWTTLNGSLPKGVEAQNRTLFFKGPINYSLAGTYICEATNPIGTRSGQVEVNITEFPYTPSPPEHGRRAGPVPTAIIGGVAGSILLVLIVVGGIVVALRRRRHTFKGDYSTKKHVYGNGYSKAGIPQHHPPMAQNLQYPDDSDDEKKAGPLGGSSYEEEEEEEEGGGGGERKVGGPHPKYDEDAKRPYFTVDEAEARQDGYGDRTLGYQYDPEQLDLAENMVSQNDGSFISKKEWYV
notes: whole, on cells
binding result [2]: binds
